Experimental data from patent US4835253A, “Specific inhibitors of tissue kallikrein” (The University Hospital, priority 1987, dated 1989).

How the values were obtained:
Format in all cases: biochemical, human
[1] = test system: T1, CC(=O)N[C@@H](CO)C(=O)N1CCC[C@H]1C(=O)N[C@@H](Cc1ccccc1)C(=O)N[C@@H](CCCNC(=N)N)C(=O)N[C@@H](CO)C(=O)N[C@H](C(=O)N[C@@H](CCC(N)=O)C(N)=O)C(C)C; assay: KM determination: hydrolysis of substrate analogues by HUK (HPLC, scintillation counting); details: other: hydrolysis by HUK, pH 9.0, 37 C, thirty minutes
T1 construct: Human urinary kallikrein (hereinafter "HUK") was highly purified using a modification of published methods; from tissue; host or cells: human urine
Procedure: (§1) Human urinary kallikrein (hereinafter "HUK") was highly purified using a modification of published methods that employ ultrafiltration, aprotinin-CH-sepharose affinity chromatography, and Sephadex G-100 gel filtration [ole-MoiYoi et al., Proc. Natl. Acad. Sci. USA 76: 3121-3125 (1979)]. […] The pH of each fraction was determined immediately upon elution, and the fraction was neutralized by addition of 2.0 ml of 2M Tris-HCL buffer (pH 8.0).
(§2) KM Determination: Hydrolysis of the substrate analogue inhibitors by HUK was measured by combining the test inhibitor at different concentrations on either side of the KM value with the enzyme at pH 9.0 for thirty minutes at 37 C. The cleavage products were separated from the starting material in the digest by HPLC on a Beckman octadecylsilane (ODS) column (1×25 cm) using a thirty minute gradient of from 0-70% CH3 CN in triethylammonium phosphate buffer (pH 7.0). The starting materials and reaction products were completely resolved under these conditions. Absorbance of the HPLC effluent was monitored at 220 nm. Individual fractions were collected and the amount of peptide degradation products was quantitated by counting in a liquid scintillation counter. Samples containing individual inhibitors were incubated without HUK and solvent blanks were also chromatographed and analyzed in the same way.
(§3) For test purposes, in these HUA cleavage studies, individual peptide sequences were synthesized, purified, and characterized as previously described herein. For these cleavage studies, doubly labelled peptides were prepared using [^3 H]-valine and […] respectively. In addition, 6.0N HCL-dioxane was used for removal of tert-butoxycarbonyl protecting groups and 90% hydrogen fluoride/10% anisole (volume/volume) for global deprotection on completion of the synthesis. After extraction and gel filtration on Sephadex G-15, final purification was completed by isocratic elution from a synchrom RP-P column (2.1×25 cm) with CH3 CN--H2 O (8 ml/min). The resultant peptides were deemed to be homogeneous by amino acid analysis; high performance liquid chromatography; thin layer chromatography; and A230 /A260 ratio analysis. […]

[2] = test system: T2, CC(=O)N1CCC[C@H]1C(=O)N[C@@H](Cc1ccccc1)C(=O)N[C@@H](CCCNC(=N)N)C(=O)N[C@@H](CO)C(=O)N[C@H](C(=O)N[C@@H](CCC(N)=O)C(N)=O)C(C)C; assay: as above; details: other: hydrolysis by HUK, pH 9.0, 37 C, thirty minutes
T2 construct: Human urinary kallikrein (hereinafter "HUK") was highly purified using a modification of published methods; from tissue; host or cells: human urine
Procedure: as §1, §2, §3

[3] = test system: T3, CC(=O)N[C@@H](Cc1ccccc1)C(=O)N[C@@H](CCCN=C(N)N)C(=O)N[C@@H](CO)C(=O)N[C@H](C(=O)N[C@@H](CCC(N)=O)C(N)=O)C(C)C; assay: as above; details: other: hydrolysis by HUK, pH 9.0, 37 C, thirty minutes
T3 construct: Human urinary kallikrein (hereinafter "HUK") was highly purified using a modification of published methods; from tissue; host or cells: human urine
Procedure: as §1, §2, §3

[4] = test system: T4, NCCCC[C@H](NC(=O)[C@H](CC1CCCCC1)NC(=O)[C@H](N)c1ccccc1)C(=O)Nc1ccc([N+](=O)[O-])cc1; assay: Km and Vmax of tripeptide 4-nitroanilides with HUK; details: other: tripeptide 4-nitroanilide as HUK substrate; pH 9.0; 37.0 °C
T4 construct: Human urinary kallikrein (hereinafter "HUK") was highly purified using a modification of published methods; from tissue; host or cells: human urine
From the text: (§4) An evaluation of other possible peptide sequences and their potential effect as substrate analogue inhibitors specifically of tissue kallikrein was undertaken using chromogenic substrates comprising alternate series of tripeptide 4-nitroanilides using previously described methods [Amundsen et al., "Methods For The Determination Of Glandular Kallikrein By Means Of A Chromogenic Tripeptide Substrate," in Kinins-II. Part A. Plenum Press, 1979, pages 83-95]. This methodology relies on the capacity of HUK to cleave p-nitroaniline from specifically synthesized tripeptide 4-nitroanilines. Controls for this experimental series included S-2266 comprising D-Val-Leu-Arg-4NA; S-2444 comprising D-Glu-Gly-Arg-4NA; and S-2302 comprising D-Pro-Phe-Arg-4NA respectively. The 50% inhibitory concentration (IC50) values for each synthesized tripeptide 4-nitroanilide was determined at 37 C. at pH 9.0 using the specific kallikrein substrates S-2266 (Kabi, Helena Laboratories, Beaumont, Tex.). 4.0 nanograms (hereinafter "ng") of HUK were used in each sample. Blanks lacking S-2266 were run in parallel to correct for hydrolysis of all samples. In all cases, the amount of 4-nitroaniline generated from each tripeptide was less than 10% of that observed for the hydrolysis of S-2266.
(§5) Subsequently, the Km and Vmax for each test tripeptide 4-nitroanilide was determined using conventional techniques in an HP-8450 diode array spectrophotometer (Hewlett Packard Company) attached to a HP-85 microcomputer. The multicomponent assay program was modified to allow the simultaneous determination of the reaction velocity in four samples.

[5] = test system: T5, N=C(N)NCCC[C@H](NC(=O)[C@H](Cc1ccccc1)NC(=O)[C@H](N)C1CCCCC1)C(=O)Nc1ccc([N+](=O)[O-])cc1; assay: Km and Vmax of tripeptide 4-nitroanilides with HUK; details: other: tripeptide 4-nitroanilide as HUK substrate; pH 9.0; 37.0 °C
T5 construct: Human urinary kallikrein (hereinafter "HUK") was highly purified using a modification of published methods; from tissue; host or cells: human urine
From the text: as §4, §5

[6] = test system: T6, N=C(N)NCCC[C@H](NC(=O)[C@H](CC1CCCCC1)NC(=O)[C@H](N)c1ccccc1)C(=O)Nc1ccc([N+](=O)[O-])cc1; assay: Km and Vmax of tripeptide 4-nitroanilides with HUK; details: other: tripeptide 4-nitroanilide as HUK substrate; pH 9.0; 37.0 °C
T6 construct: Human urinary kallikrein (hereinafter "HUK") was highly purified using a modification of published methods; from tissue; host or cells: human urine
From the text: as §4, §5

[7] = test system: T7, N=C(N)NCCC[C@H](NC(=O)[C@H](CC1CCCCC1)NC(=O)[C@@H](N)C1CCCCC1)C(=O)Nc1ccc([N+](=O)[O-])cc1; assay: Km and Vmax of tripeptide 4-nitroanilides with HUK; details: other: tripeptide 4-nitroanilide as HUK substrate; pH 9.0; 37.0 °C
T7 construct: Human urinary kallikrein (hereinafter "HUK") was highly purified using a modification of published methods; from tissue; host or cells: human urine
From the text: as §4, §5

[8] = test system: T8, CC[C@H](C)[C@H](N)C(=O)N[C@@H](CC1CCCCC1)C(=O)N[C@@H](CCCNC(=N)N)C(=O)Nc1ccc([N+](=O)[O-])cc1; assay: Km and Vmax of tripeptide 4-nitroanilides with HUK; details: other: tripeptide 4-nitroanilide as HUK substrate; pH 9.0; 37.0 °C
T8 construct: Human urinary kallikrein (hereinafter "HUK") was highly purified using a modification of published methods; from tissue; host or cells: human urine
From the text: as §4, §5

[9] = test system: T9, NCCCC[C@H](NC(=O)[C@H](CC1CCCCC1)NC(=O)[C@H](N)C1CCCCC1)C(=O)Nc1ccc([N+](=O)[O-])cc1; assay: Km and Vmax of tripeptide 4-nitroanilides with HUK; details: other: tripeptide 4-nitroanilide as HUK substrate; pH 9.0; 37.0 °C
T9 construct: Human urinary kallikrein (hereinafter "HUK") was highly purified using a modification of published methods; from tissue; host or cells: human urine
From the text: as §4, §5

Human urinary kallikrein (Homo sapiens)
Km [1]: 37.6 µM
Km [2]: 482 µM
kcat [2]: 229 mol/mol/sec
Km [3]: 307 µM
kcat [3]: 188 mol/mol/sec
Km [4]: 48.1 µM
Km [5]: 0.84 µM
Km [6]: 1.96 µM
Km [7]: 12.5 µM
Km [8]: 1.33 µM
Km [9]: 46.6 µM
